Measured values as given in US20090131309A1, “ICA512 COUPLES INSULIN SECRETION AND GENE EXPRESSION IN BETA-CELLS” (Technische Universität Dresden Medizinizche Fakultät Carl …, priority 2004, published 2009).

Columns and labels:
STAT5b [1] = target: T1, STAT5b (Rattus norvegicus, UniProt P52632); experiment: Co-immunoprecipitation with anti-GFP antibodies from INS-1 extracts; type: binding; conditions: hGH-stimulated INS-1 cells
T1 construct: endogenous in cells; host or cells: INS-1 cells transiently transfected with ICA512-CCF-GFP
T1 sequence (P52632 1-786): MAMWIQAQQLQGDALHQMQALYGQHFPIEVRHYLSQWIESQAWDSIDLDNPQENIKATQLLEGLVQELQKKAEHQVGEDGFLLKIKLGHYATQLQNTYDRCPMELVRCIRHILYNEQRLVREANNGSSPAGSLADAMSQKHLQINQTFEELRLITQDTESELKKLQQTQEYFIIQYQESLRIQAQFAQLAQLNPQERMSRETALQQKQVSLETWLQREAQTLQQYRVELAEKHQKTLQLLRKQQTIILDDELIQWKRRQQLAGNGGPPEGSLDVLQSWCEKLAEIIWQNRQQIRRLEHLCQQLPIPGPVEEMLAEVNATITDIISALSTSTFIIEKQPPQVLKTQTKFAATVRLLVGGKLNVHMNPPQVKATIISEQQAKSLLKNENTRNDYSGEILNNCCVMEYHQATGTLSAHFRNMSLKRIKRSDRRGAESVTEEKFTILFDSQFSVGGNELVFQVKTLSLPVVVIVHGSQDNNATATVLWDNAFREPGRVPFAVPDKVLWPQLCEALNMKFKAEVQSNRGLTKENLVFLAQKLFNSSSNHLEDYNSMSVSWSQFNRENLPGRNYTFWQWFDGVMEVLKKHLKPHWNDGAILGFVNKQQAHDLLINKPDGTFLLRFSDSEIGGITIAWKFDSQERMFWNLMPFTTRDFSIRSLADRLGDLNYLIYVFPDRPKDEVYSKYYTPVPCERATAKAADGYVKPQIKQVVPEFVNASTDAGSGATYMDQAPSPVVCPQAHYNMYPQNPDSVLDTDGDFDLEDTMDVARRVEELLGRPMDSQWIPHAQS
Description: Immunoprecipitation. INS-1 cells were transiently transfected With one or more of the following constructs: GFP, ICA512-CCF-GFP, ICA512-CCF(K/A^754)-GFP, SUMO-1 and HA-SUMO-1. Anti-GFP IgGs were used for immunoprecipitations from total or cytosolic extracts. Immunoprecipitates were immunoblotted with anti-STAT5b, anti-PY-STAT5, anti-GFP or anti-HA antibodies. 600 μg and 200 μg protein were used as starting material for immunopreciptation of sumoylated ICA512 and STAT5, respectively.

pro-ICA512 = experiment: Immunoblot for pro-ICA512 and ICA512-TMF in INS-1 cells; type: cell-based, rat
Description: (§1) Culture of INS-1 cells. INS-1 cells were grown as described^27. In some instances cells were pre-incubated for 1 hour in resting buffer (0 mM glucose, 5 mM KCl) and then for 2 or 6 hours in resting or stimulating (25 mM glucose, 55 mM KCl) buffers as described^7. Calpeptin (Calbiochem) was added in the last 15 minutes of the pre-incubation, and then for the entire following period before cells were harvested. Cells were stimulated with 20 nM human growth hormone (hGH) for 20 minutes following 18 hours incubation in low serum medium (LSM) containing RPMI-1640, 11 mM glucose, 0.5% FBS 25 mM HEPES, 1% penicillin-streptomycin and 0.05 mM β-mercaptoethanol. After washing, cells were either harvested or incubated in LSM for 6 additional hours. For immunoprecipitation cells were collected 1 hour after stimulation with hGH.
Cell extracts and western blotting. INS-1 cells and pancreatic islets were harvested at 4° C. in RIPA buffer [50 mM Tris-HCl at pH 8.0, 150 mM NaCl, 1% NP-40, 0.1% SDS, 0.5% sodium deoxycholate, and 1× protease inhibitor cocktail (Sigma)] to obtain total extracts. Insoluble material was removed by centrifugation. Cytosolic and nuclear extracts were prepared using the NE-PER Nuclear and Cytoplasmic Extraction Reagents (Pierce). Proteins were separated by 8-10% SDS-PAGE and immunoblotted with the following antibodies: mouse monoclonals anti-ICA512^7, anti-STAT5 (Santa Cruz), anti-γ-tubulin and anti-HA (Sigma); rabbit anti-PY-STAT5 and anti-STAT3 (Cell Signaling); affinity purified goat anti-GFP IgGs. Chemiluminescence was developed using the Supersignal West Pico or Femto kits (Pierce) and detected with a LAS 3000 Bioimaging System (Fuji). Protein signals were quantified with the Image Gauge v3.45 software (Fuji). Half the amount of nuclear extract proteins were immunoblotted relative to total and cytosolic extract proteins.

GLE of rat insulin 1 = experiment: EMSA with biotinylated GLE oligonucleotide of rat insulin 1 promoter; type: binding; conditions: nuclear extracts of INS-1 cells expressing increasing amount of construct
ICA512 mRNA = ICA512 mRNA by real-time PCR in INS-1 cells; type: cell-based, rat; conditions: transfected INS-1 cells vs cells expressing GFP alone
Description: PCR and real-time PCR. Cytosolic mRNA was isolated with the Oligotex Direct mRNA kit (Qiagen) according to the manufacturer's protocol. PolyA^+-enriched RNA was reverse transcribed with specific antisense primers for ICA512 and β-actin as described^8. Amplification of a 200 bp fragment flanking the GLE in the rat insulin1 (rINS1) gene promoter by PCR and real-time PCR was performed with the following primers: sense [NT], antisense [NT]. Amplification of ICA512 and β-actin was performed as described^16.

Insulin mRNA = Insulin mRNA levels by real-time PCR in INS-1 cells; type: cell-based, rat
Description: Time-course stimulation of INS-1 cells. INS-1 ceils were incubated for 1 hr. in resting buffer (2.8 mM glucose and 5 mM KCl), then for 6 hrs. in resting or stimulating buffer, with or without 40 μM calpeptin, and then again in resting buffer for up to 24 hrs. Total RNA for real-time PCR was collected at time 0, 2 and 6 hrs. during stimulation and at 2, 6, 12 and 24 hrs. during the following resting period.
Real-time PCR. Total RNA from INS-1 cells was isolated with Trizol (Invitrogen, Karlsruhe, Germany) according to the manufacturer's protocol. 1 μg of total RNA was used for the reverse transcriptase reaction, with 2 μM specific antisense primers for […] and insulin, as described (31). mRNA expression was measured by quantitative real-time PCR using the Brilliant SYBR Green QPCR (Stratagene, La Jolla, Calif.) with an Mx4000 Multiplex Quantitative Real Time PCR System (Stratagene).

STAT5b [2] = experiment: Nuclear levels of STAT5b, PY-STAT5 and STAT3 in INS-1 cells (immunoblot); type: cell-based, rat
Description: as §1
Cell extracts and western blotting. INS-1 cells and pancreatic islets were harvested at 4° C. in RIPA buffer [50 mM Tris-HCl at pH 8.0, 150 mM NaCl, 1% NP-40, 0.1% SDS, 0.5% sodium deoxycholate, and 1× protease inhibitor cocktail (Sigma)] to obtain total extracts. Insoluble material was removed by centrifugation. […] Chemiluminescence was developed using the Supersignal West Pico or Femto kits (Pierce) and detected with a LAS 3000 Bioimaging System (Fuji). Protein signals were quantified with the Image Gauge v3.45 software (Fuji). […]

STAT5 = experiment: Firefly luciferase reporter assay for STAT activity (8GLE-CAS-FL) in INS-1 cells; type: cell-based, rat; conditions: co-transfected INS-1 cells, hGH stimulation
Description: Firefly luciferase assays. INS-1 cells were co-transfected with 8GLE-CAS-FL and one or two of the following plasmids: pEGFP, ICA512-CCF-GFP, ICA512-CCF(K/A^754)-GFP and PIASy-GFP. Two days after transfection, cells were incubated in low serum medium for 18 hrs, then stimulated with 20 nM hGH for 20 minutes, and finally left in resting buffer for 6 additional hours. Cells were harvested in 500 μl lysis reagent for luciferase assays (Promega) and 10 μl were used for measurement of luciferase activity in a Berthold luminometer. Each sample was performed in triplicate and the data represent the mean of at least 2 independent experiments.

INS-1 cells = experiment: Uridine incorporation in INS-1 cells; type: cell-based, rat; conditions: relative to GFP-transfected INS-1 cells
[3] = tested on: GLE of the rat insulin I gene promoter; experiment: Chromatin immunoprecipitation, GLE of rat insulin I gene promoter; type: binding; conditions: stable INS-1 cells, anti-GFP antibodies vs control IgG

co-immunoprecipitation of STAT5b and PY-STAT5 (STAT5b [1]): co-immunoprecipitated
binding of a factor, conceivably STAT5b, to the GLE oligonucleotide (GLE of rat insulin 1): positive correlation
B1: ICA512-CCF-GFP: ICA512 cytoplasmic fragment generated by μ-calpain, residues 659-979, fused at its C-terminus with GFP (protein)
chain: SQFSDAAQASPSSHSSTPSWCEEPAQANMDISTGHMILAYMEDHLRNRDRLAKEWQALCAYQAEPNTCATAQGEGNIKKNRHPDFLPYDHARIKLKVESSPSRSDYINASPIIEHDPRMPAYIATQGPLSHTIADFWQMVWESGCTVIVMLTPLVEDGVKQCDRYWPDEGASLYHVYEVNLVSEHIWCEDFLVRSFYLKNVQTQETRTLTQFHFLSWPAEGTPASTRPLLDFRRKVNKCYRGRSCPIIVHCSDGAGRTGTYILIDMVLNRMAKGVKEIDIAATLEHVRDQRPGLVRSKDQFEFALTAVAEEVNAILKALPQ
modifications: left off: large carriers
notes: ICA512 cytoplasmic fragment generated by μ-calpain, residues 659-979, fused at its C-terminus with GFP
ICA512-TMF levels (pro-ICA512; transfected INS-1 cells vs GFP): also increased
pro-ICA512 increase (pro-ICA512; transfected INS-1 cells vs cells expressing GFP alone): 40%
ICA512 mRNA increase (ICA512 mRNA): 81%
insulin mRNA levels vs amount of construct expressed (Insulin mRNA; 0.5-4 μg construct, 4 days in culture with 11 mM glucose): correlation between the increased expression of ICA512 (659-979)-GFP and the enhancement of insulin mRNA levels
Insulin mRNA increase (Insulin mRNA; resting INS-1 cells transiently transfected, vs electroporated cells): 93%
further increase of insulin mRNA by stimulation (Insulin mRNA; stimulated transfected INS-1 cells): 60%
STAT5b and STAT3 in the nucleus (STAT5b [2]; INS-1 cells transfected with increasing amount of construct): dose-dependent increase
Nuclear STAT5b and nuclear PY-STAT5 (STAT5b [2]; hGH 20 nM 20 min, ICA512-CCF-GFP vs GFP cells, AD/DA mutant vs ICA512-CCF-GFP cells): clearly increased
STAT5 transcription activity (8GLE-CAS-FL luciferase) (STAT5): partially restored
total incorporation of 3H-uridine (INS-1 cells): 270%
co-immunoprecipitation of GLE of the rat insulin I gene promoter [3]: co-immunoprecipitated with anti-GFP antibodies
